Here are results for two molecules from patent publication US20210030841A1 (KEROS THERAPEUTICS, published 2021).

Holding throughout (assay): SPR, Biacore 3000; receptor captured on chip, ligand in solution
Background: In SPR one partner is held on a chip, and binding of the other changes the refractive index at the surface.

In one experiment the target is T1, Activin A (UniProt P08476 311-426).
T1 construct: the embodiments speak of human activin A
T1 sequence (looked up): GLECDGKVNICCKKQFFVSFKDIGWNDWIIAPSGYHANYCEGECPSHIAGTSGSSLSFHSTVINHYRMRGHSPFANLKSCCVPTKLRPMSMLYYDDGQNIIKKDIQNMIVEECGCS
The source says:
(§1) The Biacore 3000 was used to measure the kinetics of the interactions between the ActRIIa variants and the ligands Activin A, Activin B, growth differentiation factor 11 (GDF11), and BMP-9. ActRIIa variants were transiently expressed in HEK293 cells and purified from the conditioned media using Protein-A Sepharose chromatography. The ActRIIa variants were immobilized on the chip (CM4 or CM5) with capture antibodies ([…]) in flow cells 2-4 to ensure proper orientation. Flow cell 1 was used as a reference cell to subtract any nonspecific binding and bulk effects. HBS-EP+ buffer from GE Healthcare™ was used as a running buffer. Each ligand was run in a concentration series at 40 μl/min to avoid mass transport effects. The data was analyzed using Scrubber2 by BioLogic™ Software to calculate the KD of each interaction (Table 5).

The target in the next experiment is T2, Activin B (UniProt P09529 293-407).
T2 construct: the embodiments speak of human activin B
T2 sequence (looked up): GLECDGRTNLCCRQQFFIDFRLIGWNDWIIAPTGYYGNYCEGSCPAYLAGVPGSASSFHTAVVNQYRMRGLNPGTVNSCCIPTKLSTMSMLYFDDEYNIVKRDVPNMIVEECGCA
Text: as §1

For experiment [1], the target named is T3, growth differentiation factor 11 (GDF11) (UniProt O95390 299-407).
T3 construct: the embodiments speak of human GDF-11
T3 sequence (looked up): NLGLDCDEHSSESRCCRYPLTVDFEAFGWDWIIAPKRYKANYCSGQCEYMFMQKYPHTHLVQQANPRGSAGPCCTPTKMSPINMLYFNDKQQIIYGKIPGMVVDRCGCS
Text: as §1

Another experiment addresses T4, BMP-9 (UniProt Q9UK05 320-429).
T4 construct: the embodiments speak of human BMP9; also called bone morphogenetic protein 9
T4 sequence (looked up): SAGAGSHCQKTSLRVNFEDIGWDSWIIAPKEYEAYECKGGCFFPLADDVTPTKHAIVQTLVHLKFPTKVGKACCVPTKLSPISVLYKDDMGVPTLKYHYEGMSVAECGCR
Text: as §1

B1: ActRIIa/bΔ9 min variant (SEQ ID NO: 6) (receptor, not shown: a dimerising Fc or GST)
chain: AILGRSETQECLFYNANWELDRTNQTGVEPCEGEKDKRLHCFATWKNISGSIEIVKKGCWLDDINCYDRTDCVETKENPQVYFCCCEGNMCNEKFSYFPEMEVTQPTS
notes: Engineered variant of the human ActRIIa extracellular portion
Regarding B1, the Kd (as a rule, a measure of binding affinity in units of concentration) in the experiment with Activin A was 0.31 nM; in the experiment with Activin B it was 0.088 nM; in experiment [1] it was 0.114 nM; with BMP-9, 17 nM.

B2: ActRIIa/b+ variant (SEQ ID NO: 150) (receptor, not shown: a dimerising Fc or GST)
chain: GAILGRSETQECLFYNANWELERTNQTGVERCEGEKDKRLHCYATWRNISGSIEIVAKGCWLDDFNCYDRTDCVETEENPQVYFCCCEGNMCNEKFSYFPEMEVTQPTS
For B2, the binding result in experiment [1] was “binds”.
